The nanobody polyreactivity screen of Harvey et al. (2022)

Assay: yeast display, Sf9 membrane polyspecificity reagent, FACS + sequencing; frameworks hold sequencing errors
In short: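 A synthetic nanobody library was expressed on Saccharomyces cerevisiae BJ5465 by galactose induction for 36–48 hours. The library was stained for 1 hour at 4 °C with 10% biotinylated, detergent-solubilized Sf9 membrane reagent and enriched with streptavidin microbeads before FACS. Low and high (top ~1%) gates were set on anti-HA fluorescence for expression and streptavidin fluorescence for reagent binding, and each polyreactivity label reflects the gate of origin.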

Sequence	polyreactivity (PSR sort gate)
QVQLVESGGGLVQAGGSLRLSCAASGITFVWNAMGWYRQAPGKVREFVAGITYRSGRTYYADSVKGRFTISRDNAKNTVYLQMNSLKPEETAGYYCATTPRYTTYNYWGQGTQVTVSS	high polyreactivity
QVQLVESGGGLVQAGGSLRLSCAASGITFVYNAMGWYRQAPGKERELVASITFGGGSTYYADSVKGRFTISRDNAKITVYLQMHSLKPEDTAVYYCAARLHVAFDYWGQGTQVTVSS	low polyreactivity
QVQLVESGGGLVQAGGSLRLSCAASGITFVYYAMGWYRPAPGKERELVAAISWNGGSTYYADSVKGRFTISRDNAKNTVYLQMNSLKPEDSAVYYCNADSDPWYGHFSYYYYDMGYWGQGTQVTVSS	low polyreactivity
QVQLVESGGGLVQAGGSLRLSCAASGITFWAYAMGWYRQAPGKERELVAAITSGGSTNYADSVKGRFTISRDNAKNTVYLQMNSLKPEDTAVYYCAKNYRYYVFYDGFDYWGQGTQVTVSS	low polyreactivity
QVQLVESGGGLVQAGGSLRLSCAASGITFWAYAMGWYRQAPGKERELVASISSGGSTYYADSVKGRFTISRDNAKNTVYLQMNSLKPEDTAVYYCAATTLRWYGDTFNYWGQGTQVTVSS	high polyreactivity
QVQLVESGGGLVQAGGSLRLSCAASGITFWGYVMGWYRQAPGKERELVAAISSSGGRTYYADSVKGRFTISRDNAKNTVYLQMNSLKPEDTAVYYCAAVAWQGTVQFGYWGQGTQVTVSS	high polyreactivity
QVQLVESGGGLVQAGGSLRLSCAASGITFWKYAMGWYRQAPGKERELVAAISGRGGSTYYADSVKGRFTISRDNAKNTVYLQMNSLKPEDTAVFYCAKFPGISGYNYWGQGTQVTVSS	high polyreactivity
QVQLVESGGGLVQAGGSLRLSCAASGITFWSNAMGWYRQAPGKERELVAAITSSGGSTYYADSVKGRFTISRDNAKNTVYLQMNSLKPEDTAVYYCAAPISRSAGWDSYDYWGQGTQVTVSS	low polyreactivity
QVQLVESGGGLVQAGGSLRLSCAASGITFWTYTMGWYRQAPGTERELVAAISKRGGSTYYADSVKGRFTISRDNAKNSVYLQMNSLKPEDTAVYYCAATYSYRFSSFDYWGQGTQVTVSS	high polyreactivity
QVQLVESGGGLVQAGGSLRLSCAASGITFWVYVKGWYRQAPGKEREFVADISSGAGTTYYADSVKGRFTISRDNAKNTVYLQMNSLKPEDTAVYYFAARRWWPQWYDYWGQGTQVTVSS	high polyreactivity
QVQLVESGGGLVQAGGSLRLSCAASGITFWYYAMGWYRQAPGKERELVAAISWDGGSTYYADSVKGRFTISRDNAKNTVYLQMNSLKPEDTAVYYCAAEQYLYTWARHRANFDYWGQGTQVTVSS	high polyreactivity
QVQLVESGGGLVQAGGSLRLSCAASGITFWYYAMGWYRQAPRKERELVAAISWDGGSTYYADSVKGRFTISRDNAKNTVYVQMNSLKPEDTAVYYCNAVRYLERKYDYWGQGTQVTVSS	high polyreactivity
QVQLVESGGGLVQAGGSLRLSCAASGITFYDNVMGWYIQAPGKERELVAAITSGGSTNYADSVKGRFTISRDNAKNTVYLQMNSLKPEDTAVYYCAAQPRVDYEFPYRYGYWGQGTQVTVSS	low polyreactivity
QVQLVESGGGLVQAGGSLRLSCAASGITFYDNVMGWYRQAPGKERELVAAITSGGSTNYADSVKGRFTISRDNAKNTVYLQMNSLKPEDTAVYYCAAEGISVTAAQSEWYDYWGQGTQVTVSS	low polyreactivity
QVQLVESGGGLVQAGGSLRLSCAASGITFYDYAMGWYRQAPGKERELVAAISFSGSRTYYADSVKGRFTISRDNAKNTVYLQMNSLKPEDTAVYYCAASPSTPNKYGSWGQGTQVTVSS	high polyreactivity
QVQLVESGGGLVQAGGSLRLSCAASGITFYEYAMGCYRQAPGKERELVATITSGGNTNYADSVKGRFTISRDNAKNTVYLQMNSLKPEDTAVYYCNKEWDGDGYTDDCDYDYWGQGTQVTVSS	low polyreactivity
QVQLVESGGGLVQAGGSLRLSCAASGITFYEYAMGWYRQAPGKERELVASISGSGGSTFYADSVKGRFTISRDNAKNTVYLQMNSLKPEDTAVYYCAAYKEPYYEEYGYWGQGTQVTVSS	low polyreactivity
QVQLVESGGGLVQAGGSLRLSCAASGITFYFNTMGWYRQAPGKERELVASIRNTGSTYADSVKGRFTISRDNAKNTVYLQMNSLKPEDTAVYYCAARRRKYYRGEYGYWGQGTQVTVSS	high polyreactivity
QVQLVESGGGLVQAGGSLRLSCAASGITFYFNTMGWYRQAPGKVRELVASISGGSSTYYADSVKGRFTISRDNAKNTVYLQMNSLKPEDTAVYYCNAQGALFRGWFDYDYWGQGTQVTVSS	low polyreactivity
QVQLVESGGGLVQAGGSLRLSCAASGITFYGNAMGLYRQAPGKERELVANTYYADSVKGRFTISRDNAKNTVYLQMNSLKPEDTAVYYCANRNARYRSLPPGYDYWGLGTQVTVSS	low polyreactivity
QVQLVESGGGLVQAGGSLRLSCAASGITFYGNDMGGYRQAPGKERELVAAISYSGGSTYYADSVKGRFTISRDNAKNTVYLQMNSLKPEDNAGYYCAVEGTKLYEYYWGQVTQVTVSS	low polyreactivity
QVQLVESGGGLVQAGGSLRLSCAASGITFYGYAMGWYRQAPGKERELVATISSGGSTNYADSVKGRFTISRDNAKNTVYLQMNSLKPEDTAVYYCNAAPDVNRDYEGSGDYWGQGSQVTVSS	low polyreactivity

Sequence	polyreactivity (PSR sort gate)
QVQLVESGGGLVQAGGSLRLSCAASGITFYKNTMGWYRQAPGKERELVAAISSSGDNTFYADSVKGRFTISRDNAKNTVYLQMNSLKPEDTAVYYCATYRVINTIRGYYYTYDYWGQGTQVTVSS	high polyreactivity
QVQLVESGGGLVQAGGSLRLSCAASGITFYPYAMGWYSQAPGKEWELVADITWSGGSTYYADSVKGRFTISRDNAKNTVYLQMNSLKPEDSAVYYCNRKSYRLRSKVRGQYLLGYDWGQGTQVTVSS	high polyreactivity
QVQLVESGGGLVQAGGSLRLSCAASGITFYPYTLGWYRQAPGKERELVASISTSGTNYADSVKGRFTISRDNAKNTVYLQMNSLKPEDTAVYYCAADIWSYYRSTHVDSWGQGTQVTVSS	low polyreactivity
QVQLVESGGGLVQAGGSLRLSCAASGITFYQYAMGWSRQAPGKERELVAAIRWSGSSTYYADSVKGRFTISRDNAKNTVYLQMNSLKPEDTAVYYCAAAPGGWPGEYWGQGTQVTVSS	low polyreactivity
QVQLVESGGGLVQAGGSLRLSCAASGITFYQYVMGRYRQAPGKERELVAAISTSGDSTYYADYVKGRFTISRDNAKNTVYLQINSLKTEDTAVYYCATYWSGHYYYWGQGTQVTVSS	high polyreactivity
QVQLVESGGGLVQAGGSLRLSCAASGITFYRNAMGWYRKAPGKERELLAAISWSGGRTYYADSVKGRFTISRDNAKNTVYLQMNSLKPEDTAVYYCAASSWSSYYRPKYYWGQGTQVTVSS	high polyreactivity
QVQLVESGGGLVQAGGSLRLSCAASGITFYRNARGWYRQAPGKERELVAAITSGTRTYYADSVKGRFTISRDNAKNTVYLQMNSLKPEDTAVYYCAKRGPYYNDDEYYCGQGTQVTVSS	low polyreactivity
QVQLVESGGGLVQAGGSLRLSCAASGITFYRYAMGWSRQAPGKERELVAAIRRAGSTYYADSVKGRFTISRDIAKNSVYLQMNSLKPEDTAVYYCNARYGIGMNYWGQGTHVTVSS	high polyreactivity
QVQLVESGGGLVQAGGSLRLSCAASGITFYRYAMGWYRQAPGKEREFVAAITWGSTYYADSVKGRFTISRDNAKNTVYLQMNSLTPEDTAVYYCNADWGGFWQHRELDSWGQGTQVTVSS	low polyreactivity
QVQLVESGGGLVQAGGSLRLSCAASGITFYRYAMGWYRQAPGKERELVAAISSRGGRTYYADSVKGRFTISRDNAKNTVYLQMNSLKPEDTAVYYCAKGGKVGSTLEYDYWGQGTQVTVSS	high polyreactivity
QVQLVESGGGLVQAGGSLRLSCAASGITFYRYAMGWYRQAPGKERELVAAISYRGGRTFYADSVKGRFTISRDNAKNTVYLQMNSLKPEDTAVYYCNARDYYEKMDYWGQGTQVTVSS	high polyreactivity
QVQLVESGGGLVQAGGSLRLSCAASGITFYRYAMGWYRQARGKERELVADITSSGGSTYYADSVKGRFTISRDNAKNTVYLQMNSLKPEDTAVYYFNAAYYFSRIVYPYDYWGQGTQVTVSS	high polyreactivity
QVQLVESGGGLVQAGGSLRLSCAASGITFYSNAMGWYRQAPGKERELVATITRGGSTYYADSVKGRFTISRDNAKNTVYLQMNSLKPEDTAVYYCAADYSYRGREYGYWGQGTQVTVSS	low polyreactivity
QVQLVESGGGLVQAGGSLRLSCAASGITFYSYAMGWYRQAPGKEREFVAAINWRGGNTYYADSVKGRFTISRDNAKNTVYLQMNSLKPEDTAFYYCARDGIYAYWVDPYDYWGQGTQVTVSS	high polyreactivity
QVQLVESGGGLVQAGGSLRLSCAASGITFYTYAMGWYRQAPGKERELVAAISTGGSTYYADSVKGRFTISRDNAKNTVYLQMNSLKPEDTAVYYCAARTFSYPRRAYYYWGQGTQVTVSS	high polyreactivity
QVQLVESGGGLVQAGGSLRLSCAASGITFYTYAMGWYRQAPGKERELVAAITWRGGRTSYADSVKGRFTISRDNAKNTVYLQMNSLKPEDTAVYYCAKEAHPPWTSQDVFRSYDYWGQGTQVTVSS	low polyreactivity
QVQLVESGGGLVQAGGSLRLSCAASGITFYVNAMGWYRQAPGKERELVAAISRSGGSTYYADSVKGRFTISRDNAKNTVYLQMNSLKPEDTAVYYCNKEDYGLYPYYVSVGYDYWGQGTQVTVSS	low polyreactivity
QVQLVESGGGLVQAGGSLRLSCAASGITFYVNTKGWYRQAPGKEREVVAAIDWTDGGTYYADSVKGRFTISRDNAKNTVYLQMNSLKPEDTAVYYCALDYYWDIIGLYGYLAYDLDYWGQGTQVTVSS	low polyreactivity
QVQLVESGGGLVQAGGSLRLSCAASGITFYVYAMGSYTQAPGKEREFVAAISTRDGTTYADSEKGRFTISRDNAKNPFYLEMNSLKPVDTAVDYCAAAYYYDGQQGDFDYWGQGTQVTVSS	low polyreactivity
QVQLVESGGGLVQAGGSLRLSCAASGITFYVYAMGWYRQAPGKERELVAAISRRGGSTSYADSVKGRFTISRDNAKNTVYLQMNSLKPEDTAVYYCAKDTTYYQVYGYGYDYWGQGTQVTVSS	low polyreactivity
QVQLVESGGGLVQAGGSLRLSCAASGITFYVYAMGWYRQPPGTERDLVAAISRRGGSTSYADSVKGRFTISRDTAKNTVYLEMNSLKPEDTAVDYCAAGPFYGGIVRRYDYWGQGTQVTVSS	low polyreactivity
